These results are taken from patent publication US20210388081A1 (Memorial Sloan Kettering, published 2021).

The target in one experiment is SLAMF9 protein (UniProt Q96A28 19-236, limits assumed). The experiment can be described thus: phage clone on SLAMF9 protein.
Experiment [1] addresses T1, FcRL2, overexpressed on 3T3 cells (UniProt Q96LA5 20-508, limits assumed).
T1 construct: whole, on cells
T1 sequence (looked up): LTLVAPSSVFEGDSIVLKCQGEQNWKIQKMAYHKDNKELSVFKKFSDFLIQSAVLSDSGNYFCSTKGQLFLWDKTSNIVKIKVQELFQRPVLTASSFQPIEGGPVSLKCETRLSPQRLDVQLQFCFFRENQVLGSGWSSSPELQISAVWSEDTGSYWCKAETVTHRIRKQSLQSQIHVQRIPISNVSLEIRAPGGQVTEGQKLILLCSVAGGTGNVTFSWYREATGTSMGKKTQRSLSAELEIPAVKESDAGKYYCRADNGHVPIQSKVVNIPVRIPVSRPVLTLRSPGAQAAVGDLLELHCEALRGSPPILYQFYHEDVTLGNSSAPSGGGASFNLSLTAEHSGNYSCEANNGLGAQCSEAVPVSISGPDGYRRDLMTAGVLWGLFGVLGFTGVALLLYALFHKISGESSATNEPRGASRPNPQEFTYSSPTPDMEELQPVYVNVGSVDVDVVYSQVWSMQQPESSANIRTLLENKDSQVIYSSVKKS
The experiment can be described thus: phage clone on 3T3-FcRL2 cells.

For experiment [2], the target named is T2, FcRL3, overexpressed on 3T3 cells (UniProt Q96P31 18-734, limits assumed).
T2 construct: whole, on cells
T2 sequence (looked up): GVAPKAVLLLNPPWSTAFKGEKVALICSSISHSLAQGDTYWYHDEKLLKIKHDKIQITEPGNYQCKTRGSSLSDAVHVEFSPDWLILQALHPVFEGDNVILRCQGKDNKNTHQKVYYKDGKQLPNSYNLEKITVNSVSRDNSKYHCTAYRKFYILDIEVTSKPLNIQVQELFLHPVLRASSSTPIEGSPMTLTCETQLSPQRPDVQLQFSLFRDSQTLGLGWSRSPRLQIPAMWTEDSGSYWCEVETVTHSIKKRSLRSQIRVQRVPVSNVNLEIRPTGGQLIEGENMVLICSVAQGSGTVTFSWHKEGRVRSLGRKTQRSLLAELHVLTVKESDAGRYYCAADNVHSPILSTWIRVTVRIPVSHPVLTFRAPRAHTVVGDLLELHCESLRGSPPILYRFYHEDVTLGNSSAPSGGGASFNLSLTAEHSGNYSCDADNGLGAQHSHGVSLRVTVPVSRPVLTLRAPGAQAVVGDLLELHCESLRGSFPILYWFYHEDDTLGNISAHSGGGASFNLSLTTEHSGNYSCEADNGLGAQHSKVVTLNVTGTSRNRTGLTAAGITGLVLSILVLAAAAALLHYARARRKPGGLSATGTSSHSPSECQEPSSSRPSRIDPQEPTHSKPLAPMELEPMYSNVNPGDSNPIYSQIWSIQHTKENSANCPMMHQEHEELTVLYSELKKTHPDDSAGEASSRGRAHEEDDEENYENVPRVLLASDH
Put plainly: phage clone on 3T3-FcRL3 cells.

The target of experiment [3] is T3, FcRL6, overexpressed on 3T3 cells (UniProt Q6DN72 20-434, limits assumed).
T3 construct: whole, on cells
T3 sequence (looked up): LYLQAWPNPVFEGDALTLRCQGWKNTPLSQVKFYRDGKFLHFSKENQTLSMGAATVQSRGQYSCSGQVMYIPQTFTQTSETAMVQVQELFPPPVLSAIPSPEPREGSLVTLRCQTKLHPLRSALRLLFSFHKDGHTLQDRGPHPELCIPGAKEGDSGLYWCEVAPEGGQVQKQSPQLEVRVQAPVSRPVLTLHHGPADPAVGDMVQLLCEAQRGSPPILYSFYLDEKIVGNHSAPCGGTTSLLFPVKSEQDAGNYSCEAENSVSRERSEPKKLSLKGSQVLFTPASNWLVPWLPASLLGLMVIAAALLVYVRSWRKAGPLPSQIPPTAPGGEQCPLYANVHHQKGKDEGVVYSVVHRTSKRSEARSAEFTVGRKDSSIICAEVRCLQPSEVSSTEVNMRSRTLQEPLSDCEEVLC
Put plainly: phage clone on 3T3-FcRL6 cells.

Experiment [4] deals with T4, Fc Receptor-like 5 (FcRL5), full length, overexpressed on 3T3 or Raji cells (human, UniProt Q96RD9 16-977).
T4 construct: also called 3T3-FcRL5
T4 sequence: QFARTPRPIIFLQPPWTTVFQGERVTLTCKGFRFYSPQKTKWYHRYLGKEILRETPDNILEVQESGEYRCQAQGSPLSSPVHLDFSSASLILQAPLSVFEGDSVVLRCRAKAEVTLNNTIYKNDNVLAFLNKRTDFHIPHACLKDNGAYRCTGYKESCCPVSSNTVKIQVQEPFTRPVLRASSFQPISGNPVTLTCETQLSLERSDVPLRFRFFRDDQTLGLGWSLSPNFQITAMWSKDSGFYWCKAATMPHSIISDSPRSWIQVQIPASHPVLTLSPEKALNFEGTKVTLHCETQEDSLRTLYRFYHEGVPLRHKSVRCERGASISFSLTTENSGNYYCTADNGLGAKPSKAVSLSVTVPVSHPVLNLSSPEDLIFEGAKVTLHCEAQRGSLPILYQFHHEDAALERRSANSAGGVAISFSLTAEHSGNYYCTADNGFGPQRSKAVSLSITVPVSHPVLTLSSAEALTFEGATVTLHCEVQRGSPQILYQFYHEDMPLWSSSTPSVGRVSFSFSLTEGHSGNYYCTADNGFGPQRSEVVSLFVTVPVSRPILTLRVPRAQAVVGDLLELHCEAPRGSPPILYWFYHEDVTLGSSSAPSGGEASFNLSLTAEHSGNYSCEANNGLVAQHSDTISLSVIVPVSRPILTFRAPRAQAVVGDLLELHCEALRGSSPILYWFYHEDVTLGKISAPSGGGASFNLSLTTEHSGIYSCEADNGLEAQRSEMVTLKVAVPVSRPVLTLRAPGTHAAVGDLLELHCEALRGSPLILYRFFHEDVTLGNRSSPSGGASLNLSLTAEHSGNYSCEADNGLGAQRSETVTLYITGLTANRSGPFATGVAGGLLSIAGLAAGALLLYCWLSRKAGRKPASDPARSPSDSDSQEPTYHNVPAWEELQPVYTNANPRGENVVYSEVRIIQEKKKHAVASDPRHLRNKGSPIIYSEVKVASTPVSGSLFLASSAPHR
Put plainly: phage clone screening on cells. As to the method:
Once selected, positive scFv clones are further tested for their binding to FcRL5 (e.g., human FcRL5) on live 3T3 cell surfaces by flow cytometry. Briefly, phage clones are incubated with 3T3 cells over-expressing FcRL5. The cells are washed and then incubated with a mouse anti-M13 coat protein mAb. Cells are washed again and labeled with a PE-horse anti-mouse Ig prior to flow cytometry.
Phage′ display against FcRL5 was performed to enrich for scFv phage clones that bind to FcRL5 specifically. Screening was carried out on FcRL5 overexpressing 3T3 cells or 3T3 cells expressing FcRL1, 2, 3, 4 or 6 as a negative control (FIG. 2).

SLAMF9 protein, sequence (Q96A28 19-236 limits assumed): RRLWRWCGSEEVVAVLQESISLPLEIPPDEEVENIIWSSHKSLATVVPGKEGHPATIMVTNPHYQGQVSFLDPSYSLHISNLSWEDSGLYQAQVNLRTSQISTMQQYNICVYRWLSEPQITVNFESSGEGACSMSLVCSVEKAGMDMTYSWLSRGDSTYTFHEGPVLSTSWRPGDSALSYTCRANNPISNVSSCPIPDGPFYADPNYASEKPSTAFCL

B1: ET200-013 (scFv)
scFv: QSVVTQPPSVSGAPGQRVTISCTGSTSNIGAGYDVHWYQQLPGTAPKLLIYTNNFRPSGVPDRFSASKSGTSASLAITGLQAEDEADYYCGTWDSSLSAVVFGGGTKLTVLGSRGGGGSGGGGSGGGGSLEMAEVQLVESGTEVKKPGASVKVSCKASGYMFTSYGLNWVRQAPGQGLEWMGWISANNGKTNYAKKFQDRVTMTRDTSTSTGYMELRSLRSDDTAVYYCARHIGGSYFDRWGQGTLVTVSSTSGQAGQHHHHHHGAYPYDVPDYAS
notes: screened as phage clone; entry is VL-linker-VH-His tag-HA tag
Regarding B1, the binding result with SLAMF9 protein was “no binding”; in experiment [1], “no binding”; in experiment [2], “no binding”; in experiment [3] it was “no binding”; in experiment [4], “binds”.

B2: ET200-015 (scFv)
scFv: QSVVTQPPSVSVAPGKTARITCGGNNIGSKSVHWYQQKPGQAPVLVIYYDSDRPSGIPERFSGSNSGNTATLTISRVEAGDEADYYCQVWDSSSDVVFGGGTKLTVLGSRGGGGSGGGGSGGGGSLEMAEVQLVQSGAEVKKPGASVKVSCKASGYTFTSYGISWVRQAPGQGLEWMGWISAYNGNTNYAQKLQGRVTMTTDTSTSTAYMELRSLRSDDTAVYYCARWGGFGAVDHWGQGTLVTVSSTSGQAGQHHHHHHGAYPYDVPDYAS
notes: as for B1
For B2, the binding result with SLAMF9 protein is “no binding”; in experiment [1], “no binding”; in experiment [2], “no binding”; in experiment [3], “no binding”; in experiment [4] it was “binds”.

B3: ET200-017 (scFv)
scFv: SYVLTQPPSVSVAPGKTARITCGGNNIGSKSVHWYQQKPGQAPVLVVYDDSDRPSGIPERFSGSNSGNTATLSISRVEAGDEADYYCQVWDSSSDHTVFGTGTKVTVLGSRGGGGSGGGGSGGGGSLEMAQVQLQQWGAGLLKPSETLSLTCAVYGGSFSGYYWSWIRQPPGKGLEWIGEINHSGSTNYNPSLKSRVTISVDTSKNQFSLKLSSVTAADTAVYYCARYYPGMDMWGQGTLVTVSSTSGQAGQHHHHHHGAYPYDVPDYAS
notes: as for B1
Regarding B3, the binding result was “no binding” with SLAMF9 protein; “no binding” in experiment [1]; “no binding” in experiment [2]; “no binding” in experiment [3]; “binds” in experiment [4].

B4: ET200-011 (scFv)
scFv: QSVVTQPPSVSAAPGQRVTISCSGSSSNISIYDVSWYQQLPGTAPKLLIYGNNKRPSGIADRFSGSTSGTSATLGITGLQTGDEADYYCGTWDDSLSGGVFGGGTKLTVLGSRGGGGSGGGGSGGGGSLEMAQMQLVQSGAEVKKPGSSVKVSCEASGGTLSSYAINWVRQAPGQGLEWMGGIIPMFGTAHYAQKFQGRVTITADESTKTAYMELSSLRSEDTAVYYCARGVHYASFDHWGQGTLVTVSSTSGQAGQHHHHHHGAYPYDVPDYAS
notes: as for B1
As for B4, the binding result with SLAMF9 protein is “no binding”; in experiment [1], “no binding”; in experiment [2], “no binding”; in experiment [3] it was “no binding”; in experiment [4], “binds”.

B5: ET200-016 (scFv)
scFv: SSELTQDPAVSVALGQTVKITCQGDSLTDYHATWYQQKPGQAPVAVIYATNNRPTGIPDRFSGSSSGNTASLTITGAQAEDEADYYCNSRDSGTDEVLFGGGTKLTVLGSRGGGGSGGGGSGGGGSLEMAEVQLVETGGGLVKPGGSLRLSCAASGFTFSSYSMNWVRQAPGKGLEWVSSISSSSSYIYYADSVKGRFTISRDNAKNSLYLQMNSLRAEDTAVYYCARGQGYDYWGQGTLVTVSSTSGQAGQHHHHHHGAYPYDVPDYAS
notes: as for B1
For B5, the binding result with SLAMF9 protein is recorded as “no binding”; in experiment [1], “no binding”; in experiment [2], “no binding”; in experiment [3] it was “no binding”; in experiment [4] it was “binds”.

B6: ET200-012 (scFv)
scFv: QSVLTQPPSVSAAAGQKVTISCSGSDSNIGNNYVSWYQHLPGTAPKLLIYDVKNRPSGIPDRFSGSKSGSSATLGIAGLQPGDEADYYCGTWDSRLDAYVFGTGTKVTVLGSRGGGGSGGGGSGGGGSLEMAQMQLVQSGAEVKKPGASVKVSCKTSGFPFNIFGITWVRQAPGQGLEWMGWISGYNGNTDYPQKFQGRVTMSTDTSTSTAYMELRNLKSDDTAVYYCARGAYGGMDTWGQGTLVTVSSTSGQAGQHHHHHHGAYPYDVPDYAS
notes: as for B1
On to B6, for which the binding result with SLAMF9 protein is recorded as “no binding”; in experiment [1] it was “no binding”; in experiment [2] it was “no binding”; in experiment [3], “no binding”; in experiment [4] it was “binds”.

B7: ET200-014 (scFv)
scFv: SYVLTQPPSVSVAPGKTARITCGGNNIGSKSVHWYQQKPGQAPVLVIYYDSDRPSGIPERFSGSNSGNTATLTISRVEAGDEADYYCQVWDSSSDHYVFGTGTKVTVLGSRGGGGSGGGGSGGGGSLEMAEVQLVETGGGLVQPGGSLRLSCAASGFTFSSYAMSWVRQAPGKGLEWVSAISGSDGSTYYADSVKGRFTISRDNSKNTLYLQMNSLRDEDTAVYYCARSHEANLVGDWWGQGTLVTVSSTSGQAGQHHHHHHGAYPYDVPDYAS
notes: as for B1
Turning to B7, the binding result with SLAMF9 protein is “no binding”; in experiment [1] it was “no binding”; in experiment [2], “no binding”; in experiment [3] it was “no binding”; in experiment [4] it was “binds”.
